B1: FPPPP-mito (EGFP fused to ActA amino acids 231-610, four EVH1-binding FPPPP repeats and the mitochon (other)
chain: VNASDFPPPPTDEELRLALPETPMLLGFNAPATSEPSSFEFPPPPTDEELRLALPETPMLLGFNAPATSEPSSFEFPPPPTEDELEIIRETASSLDSSFTRGDLASLRNAINRHSQNFSDFPPIPTEEELNGRGGRPTSEEFSSLNSGDFTDDENSETTEEEIDRLADLRDRGTGKHSRNAGFLPLNPFASSPVPSLSPKVSKISAPALISDITKKTPFKNPSQPLNVFNKKTTTKTVTKKPTPVKTAPKLAELPATKPQETVLRENKTPFIEKQAETNKQSINMPSLPVIQKEATESDKEEMKPQTEEKMVEESESANNANGKNRSAGIEEGKLIAKSAEDEKAKEEPGNHTTLILAMLAIGVFSLGAFIKIIQLRKNN
notes: not shown: EGFP (enhanced green fluorescent protein, Clontech); the ActA portion is fused to its C-term
B2: VASP (endogenous, in Rat2 fibroblasts) (other)
chain: ETVICSSRATVMLYDDSNKRWLPAGTGPQAFSRVQIYHNPTANSFRVVGRKLQPDQQVVINCAIIRGVKYNQATPIFHQWRDARQVWGLNFGSKEDAAQFAIGMANALEALEGGGPPPAPAPPAWSTQNGPSPEELEQQKRQPEHLERRVSNAGGPPAPPAGGPPPPPGPPPPPGPPPPPGLPPSGVSGAGHGTGVAPPPAPPLPTAQGPSSGGSGAPGLAAAIAGAKLRKVSKEEASGGPLAPKAENSRGTGGGLMEEMNAMLARRRKATQVGEKPPKDESASQEESEARIPAQSEPVRRPWEKNSTTLPRMKSSSSVTTSEAHPSVPSSSDDSDLERVKQELVEEVRKELQKMKEEIIEVFVQELRKRGSP
notes: whole, on cells; also called vasodilator-stimulated phosphoprotein

Experiments:
[1] = target: T1, vinculin (endogenous, in Rat2 fibroblasts) (rat (Rat2 fibroblasts), UniProt P85972 1-1066); experiment: immunofluorescence in FPPPP-mito Rat2 cells
T1 construct: whole, on cells
T1 sequence: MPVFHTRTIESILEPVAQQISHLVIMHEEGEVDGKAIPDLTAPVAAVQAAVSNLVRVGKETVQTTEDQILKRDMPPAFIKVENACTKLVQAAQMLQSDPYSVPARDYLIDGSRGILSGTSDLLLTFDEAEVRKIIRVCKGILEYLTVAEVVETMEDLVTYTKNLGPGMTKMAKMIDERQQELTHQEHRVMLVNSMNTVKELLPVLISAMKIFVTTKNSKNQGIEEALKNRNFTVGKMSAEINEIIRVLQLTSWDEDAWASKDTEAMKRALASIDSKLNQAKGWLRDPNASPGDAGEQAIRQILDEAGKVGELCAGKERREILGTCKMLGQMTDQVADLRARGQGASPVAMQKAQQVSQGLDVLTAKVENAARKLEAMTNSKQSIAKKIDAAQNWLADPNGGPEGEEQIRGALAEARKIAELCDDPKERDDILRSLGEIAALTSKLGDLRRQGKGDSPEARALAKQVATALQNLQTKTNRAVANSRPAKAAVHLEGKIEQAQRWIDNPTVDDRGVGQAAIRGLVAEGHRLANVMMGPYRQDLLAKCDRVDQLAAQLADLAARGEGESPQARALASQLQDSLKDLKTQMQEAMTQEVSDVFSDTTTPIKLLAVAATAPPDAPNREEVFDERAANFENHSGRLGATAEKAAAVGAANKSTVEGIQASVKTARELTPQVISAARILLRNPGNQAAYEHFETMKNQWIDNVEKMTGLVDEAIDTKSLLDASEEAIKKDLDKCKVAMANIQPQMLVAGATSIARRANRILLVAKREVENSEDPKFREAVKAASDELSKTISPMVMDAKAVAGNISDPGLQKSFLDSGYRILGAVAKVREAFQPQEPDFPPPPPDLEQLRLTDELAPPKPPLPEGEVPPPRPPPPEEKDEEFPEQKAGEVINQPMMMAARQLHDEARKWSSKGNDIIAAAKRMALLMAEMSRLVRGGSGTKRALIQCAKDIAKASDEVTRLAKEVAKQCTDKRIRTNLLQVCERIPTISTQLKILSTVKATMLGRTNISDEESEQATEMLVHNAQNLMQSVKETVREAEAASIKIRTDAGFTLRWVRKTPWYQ

[2] = target: T2, p34 component of the Arp2/3 complex (endogenous, in Rat2 fibroblasts) (rat (Rat2 fibroblasts), UniProt P85970 1-300); experiment: immunofluorescence in FPPPP-mito Rat2 cells
T2 construct: whole, on cells

[3] = target: B1; experiment: immunofluorescence co-localisation in Rat2 cells expressing the construct
[4] = target: B2; experiment: immunofluorescence in Rat2 cells expressing the construct

B1
binding result [1]: no binding
binding result [2]: no binding

B2
binding result [3]: binds

B3: FPPPP-cyto (EGFP fused to ActA amino acids 231-360, without the mitochondrial targeting sequence) (other)
chain: VNASDFPPPPTDEELRLALPETPMLLGFNAPATSEPSSFEFPPPPTDEELRLALPETPMLLGFNAPATSEPSSFEFPPPPTEDELEIIRETASSLDSSFTRGDLASLRNAINRHSQNFSDFPPIPTEEEL
notes: not shown: EGFP (enhanced green fluorescent protein, Clontech)
binding result [4]: binds
